Laboratory results taken from US20200079833A1 (AstraZeneca / MedImmune, published 2020).
Starred links: 1 amine or outer side, 2 acyl side, 3 side chain; linkers in the order of their positions; H or OH if unused. Non-standard residues stand in square brackets, D forms with d. Groups on a side chain read outwards from the residue. Primed or numbered codes have the meaning given here. No end group written: not given here. *: point of attachment. Dodecanoyl(12-OPh(4-COOH)) = O=C(O)c1ccc(OCCCCCCCCCCCC(=O)*)cc1; γGlu = O=C(O)[C@H](CCC(=O)[*:2])N[*:1]; Stearoyl = CCCCCCCCCCCCCCCCCC(=O)*; αMeF = C[C@](N)(Cc1ccccc1)C(=O)O; αMeK = C[C@](N)(CCCCN)C(=O)O; αMeS = C[C@](N)(CO)C(=O)O; PEG2′ = not defined here; Aib = CC(C)(N)C(=O)O; Ahx = NCCCCCC(=O)O

T1: glucose-dependent insulinotropic peptide (gastric inhibitory polypeptide) receptor (GIPR) (human, UniProt P48546 22-466)
T1 sequence (looked up): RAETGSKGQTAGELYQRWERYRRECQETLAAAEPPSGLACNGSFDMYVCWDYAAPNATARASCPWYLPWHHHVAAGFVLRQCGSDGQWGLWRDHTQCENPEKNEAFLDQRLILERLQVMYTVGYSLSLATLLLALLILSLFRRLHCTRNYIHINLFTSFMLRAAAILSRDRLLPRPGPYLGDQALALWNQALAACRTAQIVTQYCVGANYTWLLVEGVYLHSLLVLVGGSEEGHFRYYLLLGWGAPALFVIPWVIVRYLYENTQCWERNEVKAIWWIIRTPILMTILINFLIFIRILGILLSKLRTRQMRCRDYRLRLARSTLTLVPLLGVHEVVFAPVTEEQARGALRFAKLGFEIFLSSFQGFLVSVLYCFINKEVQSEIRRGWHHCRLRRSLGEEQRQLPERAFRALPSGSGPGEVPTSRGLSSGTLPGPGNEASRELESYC

T2: glucose-dependent insulinotropic peptide (gastric inhibitory polypeptide) receptor (human, UniProt P48546 22-466)
T2 sequence (looked up): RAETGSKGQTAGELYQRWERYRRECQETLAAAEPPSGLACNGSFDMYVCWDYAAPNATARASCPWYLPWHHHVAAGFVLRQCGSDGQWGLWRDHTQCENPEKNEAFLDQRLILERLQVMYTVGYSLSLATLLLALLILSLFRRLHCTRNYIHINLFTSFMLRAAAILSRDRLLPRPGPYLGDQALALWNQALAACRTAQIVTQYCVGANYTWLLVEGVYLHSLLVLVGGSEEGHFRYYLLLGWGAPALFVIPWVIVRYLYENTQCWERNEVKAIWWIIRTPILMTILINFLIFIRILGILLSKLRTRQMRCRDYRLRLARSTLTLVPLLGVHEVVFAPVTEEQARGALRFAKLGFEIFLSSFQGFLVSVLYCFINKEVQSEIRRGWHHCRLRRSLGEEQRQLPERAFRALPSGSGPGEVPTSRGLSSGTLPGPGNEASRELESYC

B1: SEQ ID NO 144 (peptide)
peptide: H[Aib]EGS[αMeF]TSDV[αMeS]S[αMeF]LEGEAAK([PEG2′-PEG2′-Dodecanoyl(12-OPh(4-COOH))])E[αMeF]IA[αMeF]VV[αMeK]GG-NH2
B2: SEQ ID NO 23 (peptide)
peptide: HXEGTFTSDVSSYLEGQAAKEFIAWLVKGR
modifications: Aib 2; α-MeSer 8; α-MeSer 11; C-terminal amide
B3: SEQ ID NO 141 (peptide)
peptide: H[Aib]EGS[αMeF]TSDV[αMeS]S[αMeF]LEGEAAK([Ahx-Ahx-Dodecanoyl(12-OPh(4-COOH))])E[αMeF]IA[αMeF]VV[αMeK]GG-NH2
modifications: N-terminus assumed
SMILES: CC[C@H](C)[C@H](NC(=O)[C@](C)(Cc1ccccc1)NC(=O)[C@H](CCC(=O)O)NC(=O)[C@H](CCCCNC(=O)CCCCCNC(=O)CCCCCNC(=O)CCCCCCCCCCCOc1ccc(C(=O)O)cc1)NC(=O)[C@H](C)NC(=O)[C@H](C)NC(=O)[C@H](CCC(=O)O)NC(=O)CNC(=O)[C@H](CCC(=O)O)NC(=O)[C@H](CC(C)C)NC(=O)[C@](C)(Cc1ccccc1)NC(=O)[C@H](CO)NC(=O)[C@](C)(CO)NC(=O)[C@@H](NC(=O)[C@H](CC(=O)O)NC(=O)[C@H](CO)NC(=O)[C@@H](NC(=O)[C@](C)(Cc1ccccc1)NC(=O)[C@H](CO)NC(=O)CNC(=O)[C@H](CCC(=O)O)NC(=O)C(C)(C)NC(=O)[C@@H](N)Cc1c[nH]cn1)[C@@H](C)O)C(C)C)C(=O)N[C@@H](C)C(=O)N[C@@](C)(Cc1ccccc1)C(=O)N[C@H](C(=O)N[C@H](C(=O)N[C@@](C)(CCCCN)C(=O)NCC(=O)NCC(N)=O)C(C)C)C(C)C
B4: SEQ ID NO 19 (peptide)
peptide: HXEGTFTSDVSSYLEGQAAKEFIAWLVKGR
modifications: Aib 2; α-MeSer 8; C-terminal amide
B5: SEQ ID NO 142 (peptide)
peptide: H[Aib]EGS[αMeF]TSDV[αMeS]S[αMeF]LEGEAAK([Ahx-Ahx-Ahx-Dodecanoyl(12-OPh(4-COOH))])E[αMeF]IA[αMeF]VV[αMeK]GG-NH2
modifications: N-terminus assumed
SMILES: CC[C@H](C)[C@H](NC(=O)[C@](C)(Cc1ccccc1)NC(=O)[C@H](CCC(=O)O)NC(=O)[C@H](CCCCNC(=O)CCCCCNC(=O)CCCCCNC(=O)CCCCCNC(=O)CCCCCCCCCCCOc1ccc(C(=O)O)cc1)NC(=O)[C@H](C)NC(=O)[C@H](C)NC(=O)[C@H](CCC(=O)O)NC(=O)CNC(=O)[C@H](CCC(=O)O)NC(=O)[C@H](CC(C)C)NC(=O)[C@](C)(Cc1ccccc1)NC(=O)[C@H](CO)NC(=O)[C@](C)(CO)NC(=O)[C@@H](NC(=O)[C@H](CC(=O)O)NC(=O)[C@H](CO)NC(=O)[C@@H](NC(=O)[C@](C)(Cc1ccccc1)NC(=O)[C@H](CO)NC(=O)CNC(=O)[C@H](CCC(=O)O)NC(=O)C(C)(C)NC(=O)[C@@H](N)Cc1c[nH]cn1)[C@@H](C)O)C(C)C)C(=O)N[C@@H](C)C(=O)N[C@@](C)(Cc1ccccc1)C(=O)N[C@H](C(=O)N[C@H](C(=O)N[C@@](C)(CCCCN)C(=O)NCC(=O)NCC(N)=O)C(C)C)C(C)C
B6: SEQ ID NO 143 (peptide)
peptide: H[Aib]EGS[αMeF]TSDV[αMeS]S[αMeF]LEGEAAK([PEG2′-Dodecanoyl(12-OPh(4-COOH))])E[αMeF]IA[αMeF]VV[αMeK]GG-NH2
B7: SEQ ID NO 3 (peptide)
peptide: H[Aib]EGS[αMeF]TSDV[αMeS]S[αMeF]LEGEAAK([PEG2′-PEG2′-γGlu-Stearoyl])E[αMeF]IA[αMeF]VV[αMeK]GG-NH2
B8: SEQ ID NO 17 (peptide)
peptide: H[Aib]EGS[αMeF]TSDV[αMeS]S[αMeF]LEGEAA[αMeK]E[αMeF]IA[αMeF]VV[αMeK]GG-NH2
modifications: N-terminus assumed
SMILES: CC[C@H](C)[C@H](NC(=O)[C@](C)(Cc1ccccc1)NC(=O)[C@H](CCC(=O)O)NC(=O)[C@](C)(CCCCN)NC(=O)[C@H](C)NC(=O)[C@H](C)NC(=O)[C@H](CCC(=O)O)NC(=O)CNC(=O)[C@H](CCC(=O)O)NC(=O)[C@H](CC(C)C)NC(=O)[C@](C)(Cc1ccccc1)NC(=O)[C@H](CO)NC(=O)[C@](C)(CO)NC(=O)[C@@H](NC(=O)[C@H](CC(=O)O)NC(=O)[C@H](CO)NC(=O)[C@@H](NC(=O)[C@](C)(Cc1ccccc1)NC(=O)[C@H](CO)NC(=O)CNC(=O)[C@H](CCC(=O)O)NC(=O)C(C)(C)NC(=O)[C@@H](N)Cc1c[nH]cn1)[C@@H](C)O)C(C)C)C(=O)N[C@@H](C)C(=O)N[C@@](C)(Cc1ccccc1)C(=O)N[C@H](C(=O)N[C@H](C(=O)N[C@@](C)(CCCCN)C(=O)NCC(=O)NCC(N)=O)C(C)C)C(C)C
B9: SEQ ID NO 145 (peptide)
peptide: H[Aib]EGS[αMeF]TSDV[αMeS]S[αMeF]LEGEAAK([PEG2′-PEG2′-PEG2′-Dodecanoyl(12-OPh(4-COOH))])E[αMeF]IA[αMeF]VV[αMeK]GG-NH2
B10: SEQ ID NO 21 (peptide)
peptide: HXEGTFTSDVSSYLEGQAAKEFIAWLVKGR
modifications: Aib 2; α-MeSer 11; C-terminal amide

Columns and labels:
Experiment in all cases: cell-based or functional assay
GLP-1 receptor (GLP-1R) = GLP-1 receptor (GLP-1R) (human, UniProt P43220 24-463)
glucagon receptor (GCGR) = glucagon receptor (GCGR) (human, UniProt P47871 26-477)
Sequence of glucagon receptor (GCGR) (P47871 26-477): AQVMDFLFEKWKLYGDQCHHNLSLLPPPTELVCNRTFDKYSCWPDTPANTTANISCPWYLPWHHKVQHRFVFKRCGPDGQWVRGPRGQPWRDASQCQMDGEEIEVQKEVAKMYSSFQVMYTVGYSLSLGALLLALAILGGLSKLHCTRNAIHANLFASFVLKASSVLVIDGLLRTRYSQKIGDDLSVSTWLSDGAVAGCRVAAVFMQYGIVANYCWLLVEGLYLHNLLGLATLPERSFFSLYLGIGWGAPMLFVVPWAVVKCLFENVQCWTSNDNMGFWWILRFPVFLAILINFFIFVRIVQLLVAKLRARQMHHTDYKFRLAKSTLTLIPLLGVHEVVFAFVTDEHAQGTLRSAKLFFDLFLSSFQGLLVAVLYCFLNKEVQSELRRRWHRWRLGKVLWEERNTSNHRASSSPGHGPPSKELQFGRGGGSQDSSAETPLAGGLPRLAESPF

[1] = biological target: T1, glucose-dependent insulinotropic …
glucagon receptor = glucagon receptor (human, UniProt P47871 26-477)
Sequence of glucagon receptor (P47871 26-477): as above

[2] = biological target: T2, glucose-dependent insulinotropic …
GLP-1 receptor = GLP-1 receptor (human, UniProt P43220 24-463)

| Binder | cAMP Mean pM GLP-1R (GLP-1 receptor (GLP-1R)) [pM] | cAMP Primary assay EC50 GLP-1R n1 (GLP-1 receptor (GLP-1R)) [nM] | cAMP Primary assay EC50 GLP-1R n2 (GLP-1 receptor (GLP-1R)) [nM] | cAMP Primary assay EC50 Gluc-R (glucagon receptor (GCGR)) [nM] | cAMP Primary assay EC50 Gluc-R (2nd) (glucagon receptor (GCGR)) [nM] | cAMP Primary assay EC50 GIP-R [1] [nM] | cAMP Primary assay EC50 GIP-R (2nd) [1] [nM] | Primary assay EC50 (cAMP), n1 (glucagon receptor) [nM] | Primary assay EC50 (cAMP), n2 (glucagon receptor) [nM] | Primary assay EC50 (cAMP), n1 [2] [nM] | Primary assay EC50 (cAMP), n2 [2] [nM] | Primary assay EC50 (cAMP), Mean pM GLP-1R (GLP-1 receptor) [pM] | Primary assay EC50 (cAMP), n1 (GLP-1 receptor) [nM] | Primary assay EC50 (cAMP), n2 (GLP-1 receptor) [nM] |
| --- | --- | --- | --- | --- | --- | --- | --- | --- | --- | --- | --- | --- | --- | --- |
| B1 | 12.6 | 0.016 | 0.0096 | 26 | 26 | 26 | 26 |  |  |  |  |  |  |  |
| B2 |  |  |  |  |  |  |  | 540 | 540 | 540 | 540 |  |  |  |
| B3 | 6.9 | 0.0087 | 0.005 | 27 | 27 | 27 | 27 |  |  |  |  |  |  |  |
| B4 |  |  |  |  |  |  |  | 130 | 130 | 130 | 130 |  |  |  |
| B5 | 10.1 | 0.012 | 0.0079 | 26 | 26 | 26 | 26 |  |  |  |  |  |  |  |
| B6 | 8.6 | 0.012 | 0.0052 | 27 | 27 | 27 | 27 |  |  |  |  |  |  |  |
| B7 |  |  |  |  |  |  |  | 25 | 25 | 25 | 25 | 100 | 0.064 | 0.14 |
| B8 |  |  |  |  |  |  |  | 31 | 31 | 31 | 31 | 0.2 | 0.00025 | 0.00024 |
| B9 | 21 | 0.027 | 0.015 | 25 | 25 | 25 | 25 |  |  |  |  |  |  |  |
| B10 |  |  |  |  |  |  |  | 340 | 340 | 340 | 340 |  |  |  |
